Results: US20100280227A1 (Genentech, published 2010)

Columns and labels:
[1] = biological target: T1, human FcγRIIa extracellular domain, His-tagged GST fusion (human, UniProt P12318 34-217); experiment: ELISA, receptor-His-GST captured by anti-GST, IgG complexed with anti-kappa F(ab')2
T1 construct: extracellular domain; also called hFcgRIIa; Human IIa
T1 sequence (looked up): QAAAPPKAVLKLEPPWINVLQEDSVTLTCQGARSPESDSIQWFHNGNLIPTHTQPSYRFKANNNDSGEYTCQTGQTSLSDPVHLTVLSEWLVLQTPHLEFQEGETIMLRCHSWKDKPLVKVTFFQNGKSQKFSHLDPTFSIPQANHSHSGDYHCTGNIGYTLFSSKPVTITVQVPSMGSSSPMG

human FcRn [2] = biological target: T2, human FcRn (human, UniProt P55899 24-297; P61769 21-119, limits assumed); experiment: SPR, FcRn on chip, equilibrium, pH 6.0 (KDb)
T2 construct: construct not described; also called huFcRn

cynomolgus FcRn [3] = biological target: T3, cynomolgus FcRn (cynomolgus monkey, UniProt Q8SPV9 24-297; Q8SPW0 21-119, limits assumed); experiment: SPR, FcRn on chip, equilibrium, pH 6.0 (KDb)
T3 construct: construct not described; also called cynoFcRn; cyno FcRn

[4] = biological target: T4, human FcγRI extracellular domain, His-tagged GST fusion (human, UniProt P12314 16-292); experiment: ELISA, receptor-His-GST captured by anti-GST, uncomplexed IgG
T4 construct: extracellular domain; also called hFcgRI; Human I

[5] = biological target: T1, human FcγRIIa extracellular domain, …; experiment: ELISA, captured FcgR-GST; EC50herceptin/EC50sample
[6] = biological target: T5, mouse FcγRI extracellular domain, His-tagged GST fusion (mouse, UniProt P26151 25-297); experiment: ELISA, captured FcgR-GST; EC50herceptin/EC50sample
T5 construct: extracellular domain; also called Mouse I
T5 sequence (looked up): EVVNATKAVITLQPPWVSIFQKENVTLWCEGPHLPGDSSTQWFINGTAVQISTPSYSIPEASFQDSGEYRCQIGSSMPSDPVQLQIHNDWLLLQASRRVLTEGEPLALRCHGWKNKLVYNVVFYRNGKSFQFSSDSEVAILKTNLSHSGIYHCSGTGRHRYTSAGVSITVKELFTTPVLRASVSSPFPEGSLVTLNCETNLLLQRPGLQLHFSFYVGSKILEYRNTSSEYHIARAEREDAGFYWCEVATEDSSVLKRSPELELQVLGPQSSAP

[7] = biological target: T6, mouse FcγRII extracellular domain, His-tagged GST fusion (mouse, UniProt P08101 30-210); experiment: ELISA, captured FcgR-GST; EC50herceptin/EC50sample
T6 construct: extracellular domain; also called Mouse II
T6 sequence (looked up): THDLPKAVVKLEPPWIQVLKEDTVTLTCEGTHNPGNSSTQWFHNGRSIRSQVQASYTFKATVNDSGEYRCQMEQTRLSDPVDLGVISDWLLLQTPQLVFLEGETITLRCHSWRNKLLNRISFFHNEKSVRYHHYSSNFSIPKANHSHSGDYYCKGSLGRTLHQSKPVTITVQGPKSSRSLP

[8] = biological target: T7, mouse FcγRIII extracellular domain, His-tagged GST fusion (mouse, UniProt P08508 31-215); experiment: ELISA, captured FcgR-GST; EC50herceptin/EC50sample
T7 construct: extracellular domain; also called Mouse III
T7 sequence (looked up): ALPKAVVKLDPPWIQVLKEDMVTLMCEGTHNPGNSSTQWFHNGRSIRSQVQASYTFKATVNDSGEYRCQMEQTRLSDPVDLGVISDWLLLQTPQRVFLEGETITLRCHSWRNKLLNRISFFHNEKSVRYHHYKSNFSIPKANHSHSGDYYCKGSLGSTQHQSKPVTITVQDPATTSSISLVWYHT

[9] = biological target: T4, human FcγRI extracellular domain, …; experiment: ELISA, captured FcgR-GST; EC50herceptin/EC50sample
[10] = biological target: T8, human FcγRIIb extracellular domain, His-tagged GST fusion (human, UniProt P31994 43-217); experiment: ELISA, captured FcgR-GST; EC50herceptin/EC50sample
T8 construct: extracellular domain; also called hFcgRIIb; Human IIb
T8 sequence (looked up): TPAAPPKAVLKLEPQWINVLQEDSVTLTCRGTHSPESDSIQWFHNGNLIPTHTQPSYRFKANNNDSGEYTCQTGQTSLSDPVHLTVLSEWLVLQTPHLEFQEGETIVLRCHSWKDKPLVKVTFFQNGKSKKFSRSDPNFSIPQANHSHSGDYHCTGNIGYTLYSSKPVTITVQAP

[11] = biological target: T9, human BR3 expressed on cells (human, UniProt Q96RJ3 1-184); experiment: BJAB cells, direct binding
T9 construct: whole, on cells; also called BR3 on BJAB cells; cell surface BR3

human FcRn [12] = biological target: T2, human FcRn; experiment: SPR, FcRn on chip, kinetic, pH 6.0 (KDa)
cynomolgus FcRn [13] = biological target: T3, cynomolgus FcRn; experiment: SPR, FcRn on chip, kinetic, pH 6.0 (KDa)
[14] = biological target: T1, human FcγRIIa extracellular domain, …; experiment: ELISA, captured FcgR-GST; A450 ratio to 9.1RF
[15] = biological target: T4, human FcγRI extracellular domain, …; experiment: ELISA, captured FcgR-GST; A450 ratio to 9.1RF
[16] = biological target: T8, human FcγRIIb extracellular domain, …; experiment: ELISA, captured FcgR-GST; A450 ratio to 9.1RF
human FcRn [17] = biological target: T2, human FcRn; experiment: SPR, FcRn on chip, kinetic, pH 6
cynomolgus FcRn [18] = biological target: T3, cynomolgus FcRn; experiment: SPR, FcRn on chip, kinetic, pH 6
[19] = biological target: T9, human BR3 expressed on cells; experiment: BJAB cells, competition with biotin-BAFF
[20] = biological target: T10, human BR3 extracellular domain (human, UniProt Q96RJ3 1-61); experiment: SPR, IgG on chip, BR3 ECD in solution
T10 construct: biotinylated where used as tracer; also called hBR3-ECD; BR3-ECD

EC50 (read off the curve) [1]: ~1 µg/mL | Kd (human FcRn [2]): 118 nM | Kd (cynomolgus FcRn [3]): 186 nM | EC50 (read off the curve) [4]: ~0.006 µg/mL | fold improvement in binding vs Herceptin [5]: 2.3 fold | fold improvement in binding vs Herceptin [6]: 1.2 fold | fold improvement in binding vs Herceptin [7]: 0.7 fold | fold improvement in binding vs Herceptin [8]: 0.8 fold | fold improvement in binding vs Herceptin [9]: 1 fold | fold improvement in binding vs Herceptin [10]: 0.7 fold | EC50 [11]: 0.46 nM | Kd (human FcRn [12]): 123 nM | Kd (cynomolgus FcRn [13]): 191 nM | binding relative to 9.1RF [14]: 1 ratio | binding relative to 9.1RF [15]: 1 ratio | binding relative to 9.1RF [16]: 1 ratio | koff (human FcRn [17]): 0.0784 s⁻¹ | kon (human FcRn [17]): 635000 M⁻¹ s⁻¹ | koff (cynomolgus FcRn [18]): 0.192 s⁻¹ | kon (cynomolgus FcRn [18]): 1.01e+06 M⁻¹ s⁻¹ | IC50 [19]: 0.68 nM | Kd [20]: 0.169 nM | koff [20]: 0.000309 s⁻¹ | kon [20]: 1.8e+06 M⁻¹ s⁻¹
B1: 9.1RF IgG antibody (antibody)
light: DIQMTQSPSSLSASVGDRVTITCKSSQSLLYSSNQNNYLAWYQQKPGKAPKLLIYWASTRESGVPSRFSGSGSGTDFTLTISSLQPEDFATYYCQQYYTYPYTFGQGTKVEIKRTVAAPSVFIFPPSDEQLKSGTASVVCLLNNFYPREAKVQWKVDNALQSGNSQESVTEQDSKDSTYSLSSTLTLSKADYEKHKVYACEVTHQGLSSPVTKSFNRGEC
heavy: not shown
notes: produced in CHO cells; also called h9.1-RF; Hu9.1-RF-IgG; copies: 2 + 2
